The data set has as its system MS2 coat protein. As to the kind of experiment: apparent KD of MS2 coat protein; designed switch direction (-1 OFF switch, 1 ON switch): 1; higher = weaker reporter binding. The essentials:
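The reported apparent KD is a per-design median over clusters, from curve fits of normalised cluster fluorescence. Protein titrations used SNAP-549-labelled MS2 coat protein, doubled from 0.7 or 1.5 nM to 3 µM, in Tris-HCl pH 7.5 buffer with KCl, MgCl2, BSA, DTT, tRNA and Tween-20, with no input, 200 uM small-molecule ligand, or an oligonucleotide input. The RNA switches were transcribed on Illumina chips by stalled E. coli RNA polymerase.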

The mark [1] stands for this setting: Eterna round: R95, input ligand: FMN 200 uM.
The mark [2] stands for this setting: Eterna round: R95, input ligand: microRNA oligo, concentration not stated.
Where [3] appears, read: Eterna round: R95, input ligand: none.
The mark [4] stands for this setting: input ligand: microRNA oligo, concentration not stated.

Regarding “UCUUGGUUUUUGCUCGUUUUUUGUGUUGAACAUGAGGAUCACCCAUGUAUUAUACGAUCCGGUUUAAUAAUAAUCCG [JMF 80] (puzzle: Sensor for hsa-mir-208a)”, the “apparent KD of MS2 coat protein” value under setting [1] was determined as 23.7 nM, the “apparent KD of MS2 coat protein” value under setting [2] stood at 16.1 nM and the “apparent KD of MS2 coat protein” value under setting [3] amounted to 27.2 nM.
For the sequence “GUAGCCGGCACUGAGGAUAUUCAUAUUUAAACAUGAGGAUCACCCAUGUAGGCCAGAAGGCCUUGGGAGAAGGCAGGUCGGCUCG [salish99_ss2_r3_081] (puzzle: Same State 2)”, the “apparent KD of MS2 coat protein” value amounted to 20.7 nM under setting [1], 210 nM under setting [2] and 294 nM under setting [3].
With “GCUACCAAUGAAGCCAACAUGAGGAUCACCCAUGUAUGUUGGUAGGAUAUCGAUUGCAAAGCGAUCGAGAAGGGCUAAGGUAGC [Mat - Same State NG 3 - JL Mod - D82] (Eterna round: R96, puzzle: Same State NG 3)”, the “apparent KD of MS2 coat protein” value amounted to 51.9 nM (input ligand: FMN 200 uM), 59.6 nM under setting [4] and 54.5 nM (input ligand: none).
On the same counts, the results for “ACAUGAACAUGAGGAUCACCCAUGUUUAGGAUCACCCAUGCUCAGGAUAUAGCAUGAGGACAUGACUAGAAGGGAGGUGCUGAG [Same State NG3 S2] (Eterna round: R96, puzzle: Same State NG 3)” are 41 nM, 27 nM and 36.1 nM.
Take “GCCGCGUUUCGCGCCUACAUGAGGAUCACCCAUGUAUGUAGGCAGGAUAUCGUUUGCUUUGCAAACGAGAAGGGCUGUUGUGGC [salish99_SSNG3_R04_009] (Eterna round: R96, puzzle: Same State NG 3)”: the “apparent KD of MS2 coat protein” value runs as follows: (input ligand: FMN 200 uM) 79.5 nM; under setting [4], 217 nM; (input ligand: none) 227 nM.
“UUAAAACAUGAGGAUCACCCAUGUCAUCUAAGUCGAGGAUAUGGGCAUAUAAUAUAAGAACCAGAAGGCGAAUAUU [Mat - Same State 1 - Mod of UCT - D26] (puzzle: Same State 1)”: the “apparent KD of MS2 coat protein” value under setting [1] came to 113 nM, the “apparent KD of MS2 coat protein” value under setting [2] is 37.7 nM and the “apparent KD of MS2 coat protein” value under setting [3] was 58.4 nM.
Consider “GCGGACUUCACAUGAGGAUCACCCAUGUUGCGGAGACGCAAUGAGGAUAUCGAUGGGUUUCCCGUCGAGAAGGCAUAAAUCCGC [JL SSNG3 3.93 mod 5] (Eterna round: R96, puzzle: Same State NG 3)”, for which the “apparent KD of MS2 coat protein” value reads like this: (input ligand: FMN 200 uM) 25.2 nM; under setting [4], 30 nM; (input ligand: none) 49.8 nM.
In the case of “UUUAGGUACGGGCAGGAUAUGUAUUAAAAUACAUGAGGAUCACCCAUGUGCGGGUAUAACACCCGACAGAAGGGCCAAUCGUACC [Laonerce - 10] (puzzle: Same State 2)”, the “apparent KD of MS2 coat protein” value runs as follows: under setting [1], 25.1 nM; under setting [2], 136 nM; under setting [3], 251 nM.
Turning to “GCUCGUGGUAUUGUCUACAUGAGGAUCACCCAUGUAGGUGCGGAGGAUAUCUACGUGUCUCAUGUAGAGAAGGCCGUCACGAGC [SameState NG3 #98] (Eterna round: R96, puzzle: Same State NG 3)”, the “apparent KD of MS2 coat protein” value (input ligand: FMN 200 uM) was found to be 20.3 nM, the “apparent KD of MS2 coat protein” value under setting [4] is 36.2 nM and the “apparent KD of MS2 coat protein” value (input ligand: none) was found to be 89.4 nM.
“UAUGCACAUGAGGAUCACCCAUGUGAUAGAAUCACAGGAUAUCACCUCGGACGUGCGAUGUGAGAAGGGUGGUCGU [Same State 1 - Mod of Vinnie Anrelari v.4] (puzzle: Same State 1)”: the “apparent KD of MS2 coat protein” value is, setting by setting: under setting [1], 150 nM; under setting [2], 63.1 nM; under setting [3], 124 nM.
For “GCUUGACAUGAGGAUCACCCAUGUCAUGCGGACACAGGAUAUCGUGGCCUGAAGCCGUCAUGAGAAGGGUGACCAA [Bibiedce] (puzzle: Same State 1)”, the “apparent KD of MS2 coat protein” value by setting is: under setting [1], 28.3 nM; under setting [2], 17.3 nM; under setting [3], 17.6 nM.
Take “AAUCCUGUCACAGGAUAUCCGAGGUCAACCCUCGGAGAAGGGUGAUAGUCUAACAAACACACACAUGAGGAUCACCCAUGUUAA [Bigeceaor] (Eterna round: R96, puzzle: Same State NG 1)”: the “apparent KD of MS2 coat protein” value runs as follows: (input ligand: FMN 200 uM) 43.1 nM; under setting [4], 61.6 nM; (input ligand: none) 79.2 nM.
As to “AGUCCAGCCUGAGCUGGACAAAAGCAUGUACAUGAGGAUCACCCAUGUCAUGUACAAGCUUUUUGCUCGUCUUAUUA [Mat - hsa-mir-208a - Mod of JL - D24] (puzzle: Sensor for hsa-mir-208a)”, the “apparent KD of MS2 coat protein” value by setting is: under setting [1], 694 nM; under setting [2], 16.3 nM; under setting [3], 722 nM.
Take “UGUUGUUAAUUAGGAUAUGGUCACAUGAGGAUCACCCAUGUAAUGUCGAUGCUAUGUGGAUUUGAUCAGAAGGAAUGGUUAACA [SameState NG2 #98] (Eterna round: R96, puzzle: Same State NG 2)”: the “apparent KD of MS2 coat protein” value by setting is: (input ligand: FMN 200 uM) 49.2 nM; under setting [4], 62.3 nM; (input ligand: none) 90.4 nM.
Take “AUAAGUUUGAUGCUCGUCUCUCCGUACAAACAUGAGGAUCACCCAUGUGGUCGGGAAGUAGCCCAGCCAGUAUGGCC [Anriquradi] (puzzle: Sensor for hsa-mir-208a)”: the “apparent KD of MS2 coat protein” value under setting [1] came to 15.3 nM, the “apparent KD of MS2 coat protein” value under setting [2] was determined as 19.9 nM and the “apparent KD of MS2 coat protein” value under setting [3] is 17.1 nM.
Consider “AUUAUUUAUGCAGGAUAUGAUUAACAUGAGGAUCACCCAUGUGGUGUUGUGAGUAAGGAGAGUGAUCAGAAGGGCAAUUUUUUU [JMF's solution 42] (Eterna round: R96, puzzle: Same State NG 2)”, for which the “apparent KD of MS2 coat protein” value (input ligand: FMN 200 uM) was 709 nM, the “apparent KD of MS2 coat protein” value under setting [4] worked out at 387 nM and the “apparent KD of MS2 coat protein” value (input ligand: none) stood at 375 nM.
On to “ACAUGAAAGGCAGGAUAUUUUGUACCUACAUGUGACAUGAGGAUCACCCAUGUGGUAAGUAUAAGAGAGAAGGGUCAGAUAUGU [Equivalence 2 - Jieux - Same State NG 2] (Eterna round: R96, puzzle: Same State NG 2)”, for which the “apparent KD of MS2 coat protein” value (input ligand: FMN 200 uM) was 28.9 nM, the “apparent KD of MS2 coat protein” value under setting [4] was found to be 31.7 nM and the “apparent KD of MS2 coat protein” value (input ligand: none) was 37.2 nM.
Turning to “GUGCUCGUGUGAGGAUAUGCUUCCGUUUCGGCUGCAGAAGGUACUAUUAUACAUGAGGAUCACCCAUGUCCCUUUUCUCCGGUG [salish99_SSNG1_r04_914] (Eterna round: R96, puzzle: Same State NG 1)”, the “apparent KD of MS2 coat protein” value stood at 18.4 nM (input ligand: FMN 200 uM), 13.5 nM under setting [4] and 21.9 nM (input ligand: none).
For the sequence “CUUUUUAGUGCAGGAUAUGAUCAACAUGAGGAUCACCCAUGUGGCGUUGUGAGUAGGGAGAGAGAUCAGAAGGGCGUCUCCGCG [SS-NG2-LRO12] (Eterna round: R96, puzzle: Same State NG 2)”, the “apparent KD of MS2 coat protein” value reads like this: (input ligand: FMN 200 uM) 46.4 nM; under setting [4], 62.3 nM; (input ligand: none) 42.2 nM.
For “UGAAUAGUGAUAGGAUAUACAUGAGGAAUCCUCGUAGAAGGAUCACGACAUGAGGAUCACCCAUGUAGCCGUCGAAAGACGGCA [Mat - Same State NG 1 - JL mod - D61] (Eterna round: R96, puzzle: Same State NG 1)” the same measures were 924 nM, 86.1 nM and 192 nM.
With “AUAAGGCAAGCUUUUUUCUCGUAAUGUAAACAUGAGGAUCACCCAUGUGCCCAUCCUGGAUCUUUGGAUCGCAGAAC [Usbexe] (puzzle: Sensor for hsa-mir-208a)”, the “apparent KD of MS2 coat protein” value under setting [1] worked out at 34.6 nM, the “apparent KD of MS2 coat protein” value under setting [2] was 25.9 nM and the “apparent KD of MS2 coat protein” value under setting [3] turned out to be 40.7 nM.
On to “CUGAGCGAUUAAGGAUAUCACGUCGAUUAGACGUGAGAAGGUGAUCAUAACAUGAGGAUCACCCAUGUAUUACAUGAAGCUCAG [SSNG1/3-A2] (Eterna round: R96, puzzle: Same State NG 1)”, for which the “apparent KD of MS2 coat protein” value was found to be 312 nM (input ligand: FMN 200 uM), 36.8 nM under setting [4] and 128 nM (input ligand: none).
Turning to “GGAGCCGGCACCGAGGAUAUUCAUAUUAAAACAUGAGGAUCACCCAUGUGGGCCAGAAGGCCUUGGGAGAAGGCGGAUCGGCUCG [Xeonanis - 1] (puzzle: Same State 2)”, the “apparent KD of MS2 coat protein” value runs as follows: under setting [1], 15.6 nM; under setting [2], 216 nM; under setting [3], 425 nM.
For the sequence “GUGGUCAGACAUGAGGAUCACCCAUGUGGAAUAAAUAAGGGUUAGGAUAUCUAAUAUAGGAUAUAAGAGAAGGGAUGGUUGGUG (Eterna round: R96, puzzle: Same State NG 3)”, the “apparent KD of MS2 coat protein” value (input ligand: FMN 200 uM) turned out to be 118 nM, the “apparent KD of MS2 coat protein” value under setting [4] stood at 64.8 nM and the “apparent KD of MS2 coat protein” value (input ligand: none) was determined as 96.2 nM.
On the same counts, the results for “GGAAUAUGAUGUUACAUGAGGAUCACCCAUGUAGUGAUAACUAAGGAUAUCUGAAAGGAAGGAGAGGAGAAGGUAGGAUCAUAA [AK SSNG3-V2-13] (Eterna round: R96, puzzle: Same State NG 3)” are 40.1 nM, 35.3 nM and 53.2 nM.
Consider “CAUCGUUUGAUAGGAUAUCGCUAUACAUGAGGAUCACCCAUGUUUACCACGCUGGUUUUUCAUACCGAGAAGGAUUCUGAUGAA [salish99_SSNG02_r04_011] (Eterna round: R96, puzzle: Same State NG 2)”, for which the “apparent KD of MS2 coat protein” value reads like this: (input ligand: FMN 200 uM) 24.9 nM; under setting [4], 29.7 nM; (input ligand: none) 34.5 nM.
For “UUAAUGAAGUAAGGAUAUACAUGAGGAUCACUCGUAGAAGGUACUAUACAUGAGGAUCACCCAUGUGCCGGUCCGUAGACUGGA [JL SSNG1 1.03] (Eterna round: R96, puzzle: Same State NG 1)” the same measures were 554 nM, 184 nM and 1090 nM.
